A short description of this data set: soluble on expression in E. coli; label from the status in PepcDB or PDB records.
Turning to “MDVQKKAQMVIEEVKKAIVGKDNVLKLVLATILADGHILIEDLPGLAKTLMAKSFAKALGLEFKRVQFTPDLLPSDILGVNVFNQKTLEFEFKKGPVFTNILLADEINRAPPKTQSALLEAMQERQVTIEGVTYKLPKPFIVIATQNPIEQEGTYPLPEAQLDRFLVRLRMGYPSKDEEKEILRRRIERKQDEVEIETVLSPKDVLKMQREVEDVYVSDAIIEYITSLVWATREDKRDIEIGVSPRGSLALLKLSRAYAAIEGRDYVIPDDVKAVAIPALSHRIILKRELWYTRVSQESVIEKILERVPVPKFE”, the “soluble on expression in E. coli” value is given as “soluble”.
For the sequence “MDVRIRAIDERSYLNIISAIFKDLGLPQLIDRLVPVDRQCQTRTSDIVSLIILDILSGRQALVHLERWAHDIDWPKWIRPGPDPSWFNDDAIARHLDRLYEANIHQVLSSCLVQIDKKEGLSLRVFHADATDKTVYGAYESDSSDVLHITYGYNRHHRWQKPIGFGLIGNEDGIPFYGDVHDGNLSDKAWNPEVLSRIHEQFKQAKIDDEWMYVADSVAMTKETLAQTKAANAFLITRGPSSLRIVKTALSEADAQPDSAWSAPLRWPRKTAPRIGYGKRPRPMKAAPYG”, the “soluble on expression in E. coli” value was “not soluble”.
With “MDVRPYEGGRFEKIGSEEAHTIETFERRIHGTPHSEPQRQVSSKQYTERRTYGRDENGEIVVKIEKNPSEPVRPASPVRPVTPVGGENELSRHLLQPIQPLHIPRIDIQPANSSRHASPRHKLQYDEVSPRSGSINMLSPRSGHSASSRSGAGSRQSNVSVNSANVPLKKVTKKSRFVSIHDGRPVSPYTETVSFEVAIPFQPDRYSSASARSFSSSPHVSRRPSECAYLMENPLYQD”, the “soluble on expression in E. coli” value is listed as “not soluble”.
In the case of “MDVRQSIHSEHAKTLDTQALRREFLIENIFVADEYTMVYSHIDRIIVGGIMPVSHPVEIGGEVGKQLGVSRLLDRRELGVINIGGAGAIIVDGQRHDIGHRDALYIGKGAKELVFVSNEASRPAKFYYNCAPAHTAYPTKKVSPADVAPVTLGDNLTSNRRTINKYFVPDVLETCQLSMGLTELAPGNLWNTMPCHTHERRMEVYLYFNMEEDSCVFHMMGQPQETRHIVMRNEQAVISPSWSIHSGVGTKAYTFVWGMVGENQVFDDMDHVAVQDLR”, the “soluble on expression in E. coli” value is reported as “not soluble”.
For “MDVVKEIMAAIKQYETIIIHRHQRPDPDAIGSQVGLAELLRASFPEKNIYQVGGPVEGLEFLAEMDVITDDVYRGALVIVTDTANAPRISDARFSLGDQLIKIDHHPNDEPYGDLVWVNTNASSCSEIIVDFWQQHLAELTMTDNAARLLYAGIVGDTGRFLYPSTSAHTLAVAAQLRTFNFNAADLNRELDQMPLKVAKLAGYIYQNLEIDANGAARVVLPQSILNSYDIVDSETAAIVSMPGKIEDVLSWAIFVEQPEGYYRVRLRSKGPIINTIAKKHHGGGHPLASGANARDAAEIEVIYQEIQAACQEWAQK” the value was “not soluble”.
The value for “MDWDLITERNIQLFIQLAGLAERPLATNMFWRQGQYETYLNYHNGRIHLCQILKQTFLDEELLFKALANWKPAAFQGIPQRLFLLRDGLAMSCSPPLSSSAELWLRLHHRQIKFLESQCVHG” was “not soluble”.
The value for “MDYEIENNHADSIRRGSIEVICGSMFSGKTEELLRRLRRAKIARQTVEIFKPTIDIRYDETDVVSHDKNAIASTPVDNSANILLLSSQVDVVGIDEAQFFDEGLVEVAQQLADQGVRVVIAGLDMDFRRQPFGPMPGLCAIADSVTKVHAVCVECGRLASYSFRRVQGDQQVMLGELNEYSPLCRTCYRKCSSPPQTEEIHSTI” was “not soluble”; that for “MDYEIRQEQKRKIAGFHMVGPWEHTVKQGFEQLMTWVDRQRIVPVEWIAVYYDNPDVVPAEKLRCDTVVSVAENFILPDNSEGVIVTAIEGGEYATAVARVEDRDFAKPWERFFDVLEQDSAYQIASAPCFETYLNNGMEDGYWDIEMYIPVQRK” was “not soluble”; that for “MDYKEIVFDVDNTLIDTEYAILHSLQDTIKQINRKIIPIKELSFALGITGEDALRYLKIEDITIALSMWDRNMEKYKNTVLVFKEIKEMLTEIIKLNIGIGIVTSKTHEEFRNDFLSFDIAPYFNTVVCSNDTLEHKPKAVPLLKYMELTKCQNNELLYIGDSIYDMQCAYRANVDFGLVKWGSGDRVSTVISFTTPLDLIRQLSVSSN” was “not soluble”.
For “MDYSVANAGFERFQSAMEKDVERMRDFQERMSQVRGKGEAAEGRITAEVDSENGLAVLDIDPRVLRMPVEDISTEIRAAVNAAFKDFQDKTGSLAAELYGAQGEDPEKILADPSALLAKIEELGNNFAVQLQDMARELSVQQQRAKDIAGRMTPPRDLD”, the “soluble on expression in E. coli” value was “not soluble”.
Consider “MDYTPHTEEEIREMLRRVGAASLEDLFAHLPKEILSPPIDLPEPLPEWKVLEELRRLAAQNLPAHKAFLGGGVRSHHVPPVVQALAARGEFLTAYTPYQPEVSQGVLQATFEYQTMIAELAGLEIANASMYDGATALAEGVLLALRETGRMGVLVSQGVHPEYRAVLRAYLEAVGAKLLTLPLEGGRTPLPEVGEEVGAVVVQNPNFLGALEDLGPFAEAAHGAGALFVAVADPLSLGVLKPPGAYGADIAVGDGQSLGLPMGFGGPHFGFLATKKAFVRQLPGRLVSETVDVEGRRGFILTLQAREQYIRRAKAKSNITTNAQLTALMGAMYLAALGPEGLREVALKSVEMAHKLHALLLEVPGVRPFTPKPFFNEFALALPKDPEAVRRALAERGFHGATPVPREYGENLALFAATELHEEEDLLALREALKEVLA”, for which the “soluble on expression in E. coli” value was “soluble”.
In the case of “MEASKDISRLIEIMEALRQPETGCPWDVVQTFETIKPYTIEEAYEVADAIERKDMDDLCDELGDLLLQVVFHARIAEERGEFTFGDVVHAVTSKMIRRHPHVFDVSDADTPDSVKLQWDQIKAEEKRERAERRARRGITEDFKAGFLGGVQRSQPALTEALKLQEQAARVGFDWSDPAPILDKIEEEIAELREALAEGKPEKVSDELGDLIFALVNIGRHVKADPEDALRGTNTKFRRRFNHIETSLSDNGETLKEASLERMEDLWQAAKRIERSLDTVSS”, the “soluble on expression in E. coli” value is listed as “not soluble”.
For “MEATGLITEYNPFHNGHLYHLKKAQELTKADVTIVLMSGNWVQRGLPAITDKWKRAQAAIDAGADLVFELPFYYAVQAGEIFAQGAVRLLSDLQVSSIICGSEHADIDFINLAAHEPDISGNSNFDKKNRTFASNYAAALEEKTGFYLENANDILAFSYAKAILNQNLTEKIKLRTISRVSADYHDQFLNDGEIASATAIRKALSEGQNVDSYTPMSDLQY” the value was “not soluble”; for “MEAVHCFRCYKFPSKQIEFYLTNCMHMFCIECERLCHPPEEEPLKCIQCSKTPIRIVKMGPELPMTIKSMFTPISEEINQYTRDLTRVLTFQHRQRASLSTFLERKVAAFDRLRDAYSEEKTKKEHYKKQLEEAYHLLKSKEHEISKLKKQLAEQAPPPQTPPRSNSLKVASSRSLETPSMMRVFSDSMYETPVQIQRRFTKAQAKAEAEAEAPAKSPGSKAQTTKCTSNYQSHPPASFETPIHHPPKTSMGFTTPANPPHMFPYLKKHEAQREKHKEHRNSQ”, “not soluble”.
The value for “MECRLGCGACCIAPSITSFIPGMPNGKPAGVRCVQLNEENLCKLFGKAERPKVCHQFSACPDVCGSTSEQAIQTITELESMTLLEHHHHHH” was “not soluble”; that for “MEDEVFVFTPKGDLFKLAKGATVLDFAFHIHSKLGCKCIGAKVNGKNVQLKQKLNSGDQVEIMTSNTQTPKQDWLEHHHHHH” was “not soluble”; that for “MEDFWEDWDLAFEDVFPKSLKEALEGIKEIPTYGERGASRFMYNLLKLEKEKRKEIIEKVLEAVEVLRPCRECFLITDREVCPICSDEKRSKKFICVVEESQDAYAIEKLERYKGVYHVLQGHIAPLEGISAEDLTIDALMERIKKYQPKEVILATNPNVEGEATANYIAGLIRRKFPAVKITRTAYGFQFGSLIEFVDEYSLEKSMENRK” was “soluble”.
As for “MEDIWPTIERTTISASVPEAPANFDEKPPFNRTINVYPLTNYTFGTKDAQAEKDKSVPERFKRMKDEYEVMGMRRSVEAVLIVHEHSLPHILLLQIGTTFYKLPGGELELGEDEISGVTRLLNETLGRTDGETNEWTIEDEIGNWWRPNFDPPRYPYIPAHVTKPKEHTKLLLVQLPSKSTFCVPKNFKLVAAPLFELYDNAAAYGPLISSLPTTLSRFNFIFNDSN”, the “soluble on expression in E. coli” value is “not soluble”.
As to “MEDLKHSDALVREQATKKLWRIWFQQKGMYGLEKIDQSQKLLDAGEITEAEVMLTQLIQEQPDFAEAWNRRAFLYYSMGEYQKSLADCQMVIQINPVHFGALHGIGLCYAALGKYAKAIKAFKRALEIQPYSLVNQKLILECTFRLSLEHHHHHH”, the “soluble on expression in E. coli” value is “soluble”.
For “MEDLNFEERGSTQIPASLQQHFSAKLGRQNELEKTPSRGGLGLVVNSSKTPGGKSLQSLASACKVPPSTKKNTIPIAFECYEDETDDQIADVATIKKTEKHPCSPIDTANRCETFDSLAADIEDDMLNLEDQDVVLSEDRPYGDVIDPAESEAEALAELGVEEWDSYPPIDPASRIGDDFNYVLRTEDFAEEGDVKLEETRHRTVIADIDEVKMSKAERNELFSMLADDLDSYDLLAEEANLPL” the value was “not soluble”; for “MEEDQEEPPSSSTSSESPEVVLKAPKAPTRRRKNSKKDRRQDMEVDDGEKESTAQYCKGFYDALRVMQTTNKYEFTGGAVSSPVLPVLQTAAFSPITPASASDMHTIVMSLLGNTPITSGPSIAPLSSPTLLPLVTSGDLDDLSMKILASSAIPGPPIISSSNSPDSSTTAVTTSQITAFQPLLNNFVSSTTASTSRPDKLNLTPPQQSAEIYAFNGVNSDDSDGGLDSRSASRCG”, “not soluble”; for “MEEIWLSCHALVFHTTPTQRLCVGWGELAVGRFVKMAAAPAPEMTPRLDVSKNATDPDSLTDHGFQYSRHRPVITDHKRFDRLVGFSIKQSNVELAAEAIKQAATVWCLTEKKSDKRDEDSVKFLATYLYKESLYWGKIDPRRALQRATAESWLGSQSFAPTSARTYKAVLHTAGRVLYPAEFPPANRYSNPRAKPVDPASVELIDELYGVAATLPAVHRLRLQLILDLTTQSGLRSAEVLDLRGSDVTARILDTGERIALVRVHR”, “not soluble”.
The value for “MEELNKYKQEIKDNALKELDSTKKKINEEKKHWGDLPLTYMPISNGTMTREYAETEQFYSHVVNVKNILDSLFEEVENDIKRLDAIFCFNEYTVYGQEDIEQIKENIKNEYKTSVAHFSKLWEDIKAMSVLLRSCFNKTWDRHSEVTLLTVIQTLDESIKHRGGPNYDKNNDNFFLLRECGSALRECNTQIKMDEKNLIIRIINTKDLEGGFKKSLETLLNENESANFIKLLAEYLEGVNLNVDVQVLKENFFIFAQGIKQFYLNNVETLKD” was “not soluble”; that for “MEEMRVIGLLSSGIDSPVAIHLMASRGAEVYPLHFRQDEIKEKKARKLVSRLKEIHGEKVKDLKVVDALKVQGPVFEKLRELKREKWICIFCKYTMYMVAEKYAREVGAEAIVTGDSLGQVASQTLDNLMVISTATNLPIIRPLIALDKEEIVRIAKEIGTFEISIENEPPCPFLPKFPVVRAGFSQFRKILEEIREVLPK” was “soluble”; that for “MEENNKILIYTDSEGLTKIDVILEDETLWLTQAQMCELYQTSKSNVSEHIKHIFEEGELQEDSVVRKFRTTASDGKSYMTAYYNLDMIIALGYRIRSIIATRFRQWATQRLKEYMIKGFALDDERLKQLGGGGYWKELLERIRDIRATEKVLYRQVLEIYATSIDYDPRASVSQEFFKKVQNKIHYAIHGHTAAELIVERADAEKDFMGLLTFKGNQPTLSEARTAKNYLDEKELRAMGQLVSGYLDFAERQAEREQPMTMNDWANYLDRILTMSGEQLLLDSGKVSHTEAMEHATNEYRKYKQRTISDVEQDYLDSIKRIGNIGKKGDKNEN” was “not soluble”.

For the origin of these results see the DeepSol protein solubility set.
